{
  "source": "paper PMC9867676",
  "key": {"[1]": {"system": "T1, RinA (Staphylococcus aureus NCTC8325 (phage phi11)), ORF:ad3d0fcb", "T1 sequence": "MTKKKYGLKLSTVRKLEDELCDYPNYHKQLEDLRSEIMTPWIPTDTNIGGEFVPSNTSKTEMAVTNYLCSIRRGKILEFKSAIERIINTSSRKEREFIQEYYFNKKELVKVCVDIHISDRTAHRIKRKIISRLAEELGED", "test": "EMSA", "details": "50 mM Tris-HCl, 300 mM NaCl, pH 8.0 ([…], room temperature"}, "[2]": {"system": "T1, RinA (Staphylococcus aureus NCTC8325 (phage phi11)), ORF:ad3d0fcb", "test": "competition", "details": "50 mM Tris-HCl, 300 mM NaCl, pH 8.0 ([…], room temperature"}},
  "data": [
    {"sequence": "CTAAACCAAATGCTAACCCAGAAATACAATCACTGTGTCTAATGAATAATTTGTTTTATAAACACTTTTTTGTTTACTTCTCATTTTTAATTAGTTATAATTAACTAAATAATAGAGCATTAAATATATTTAATAAAACTTATTTAATGCAAAATTATGACTAACATATCTATAATAAATAAAGATTAGATATCAATATATTATCGGGCAAATGTATCGAGCAAGATGCATCAAATAGGGAGGTTTTAAACATGGC (double strand) [sarA promoter fragment (FAM)]", "values": [
      {"measurement": "binding", "setting": "[1]", "value": "binds"}
    ]},
    {"sequence": "CTAAACCAAATGCTAACCCAGAAATACAATCACTGTGTCTAATGAATAATTTGTTTTATAAACACTTTTTTGTTTACTTCTCATTTTTAATTAGTTATAATTAACTAAATAATAGAGCATTAAATATATTTAATAAAACTTATTTAATGCAAAATTATGACTAACATATCTATAATAAATAAAGATTAGATATCAATATATTATCGGGCAAATGTATCGAGCAAGATGCATCAAATAGGGAGGTTTTAAACATGGC (double strand) [sarA promoter fragment (unlabeled)]", "values": [
      {"measurement": "binding", "setting": "[2]", "value": "binds"}
    ]}
  ]
}
